Measurements as given in PMC8831599 (2022).
One block for each binder: values may come before it.

Key:
Biotinylated DB21 H101A = Biotinylated DB21 H101A (biotin on the Avi-tag (BirA-catalyzed)); assay: BLI; 200 uM CBD
[1] = biological target: T1, Biotinylated DB21 F48A-H101A (biotin on the Avi-tag (BirA-catalyzed)); assay: BLI; 200 uM CBD
Biotinylated DB21 F48A [2] = biological target: T2, Biotinylated DB21 F48A (biotin on the Avi-tag (BirA-catalyzed)); assay: BLI; 200 uM CBD
[3] = biological target: T1, Biotinylated DB21 F48A-H101A; assay: no CBD; AlphaScreen competition
Biotinylated DB21 F48A [4] = biological target: T2, Biotinylated DB21 F48A; assay: no CBD; AlphaScreen competition
[5] = biological target: T1, Biotinylated DB21 F48A-H101A; assay: 200 uM CBD; AlphaScreen competition
Biotinylated DB21 F48A [6] = biological target: T2, Biotinylated DB21 F48A; assay: 200 uM CBD; AlphaScreen competition
[7] = biological target: T3, Biotin-DB21 (biotinylated Avi-DB21) (biotin on the Avi-tag (BirA-catalyzed)); assay: no CBD; AlphaScreen competition with His-CA14
[8] = biological target: T3, Biotin-DB21 (biotinylated Avi-DB21); assay: 200 uM CBD; AlphaScreen competition with His-CA14
His-DDB1–CRBN complex = His-DDB1–CRBN complex (human, UniProt Q96SW2 41-442; Q16531 1-1140); assay: 200 uM pomalidomide; AlphaScreen competition
His-CA14 = assay: 200 uM CBD; AlphaScreen competition with Biotin-DB21
His-CA14 D34A = assay: as above
IAA7 degron = biological target: T4, IAA7 degron (Arabidopsis thaliana, UniProt Q38825, auxin); assay: BLI
T4 chain: QVVGWPPVRNYRK

GST-TIR1-ASK1 complex = biological target: T5, GST-TIR1-ASK1 complex (Arabidopsis thaliana, UniProt Q570C0 1-594; Q39255 1-160); assay: 200 uM auxin; AlphaScreen competition with biotin-Aux/IAA7
T5 chain 1: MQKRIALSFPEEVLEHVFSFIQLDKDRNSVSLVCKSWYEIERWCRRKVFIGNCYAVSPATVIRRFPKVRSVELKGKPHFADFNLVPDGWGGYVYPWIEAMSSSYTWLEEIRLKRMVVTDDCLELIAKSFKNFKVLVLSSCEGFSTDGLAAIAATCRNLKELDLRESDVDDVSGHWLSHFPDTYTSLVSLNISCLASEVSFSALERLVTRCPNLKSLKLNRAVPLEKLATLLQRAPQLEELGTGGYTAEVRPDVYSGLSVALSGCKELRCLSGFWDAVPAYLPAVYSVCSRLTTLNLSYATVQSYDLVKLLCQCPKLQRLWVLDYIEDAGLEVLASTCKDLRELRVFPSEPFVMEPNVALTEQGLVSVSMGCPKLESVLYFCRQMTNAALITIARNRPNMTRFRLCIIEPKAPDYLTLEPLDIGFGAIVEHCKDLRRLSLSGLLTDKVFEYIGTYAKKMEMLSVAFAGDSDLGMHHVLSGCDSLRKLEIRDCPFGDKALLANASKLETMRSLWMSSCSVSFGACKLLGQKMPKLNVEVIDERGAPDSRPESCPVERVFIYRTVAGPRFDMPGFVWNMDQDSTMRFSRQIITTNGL
T5 chain 2: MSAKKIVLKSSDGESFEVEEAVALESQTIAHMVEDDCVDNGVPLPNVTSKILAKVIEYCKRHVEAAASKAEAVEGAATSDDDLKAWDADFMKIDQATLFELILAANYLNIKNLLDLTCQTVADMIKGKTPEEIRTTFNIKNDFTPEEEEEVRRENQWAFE

B3: DB21 dimerization binder nanobody, tag-free (VHH)
VHH: EVQLQASGGGFVQPGGSLRLSCAASGTTYGQTNMGWFRQAPGKEREFVSAISGLQGRDLYYADSVKGRFTISRDNSKNTVYLQMNSLRAEDTATYYCAFHDFLRMWEYWGQGTQVTVSS
IC50 (His-CA14): 35 nM
IC50 (His-CA14 D34A): 27000 nM

B5: IAA7 degron peptide, non-labeled (peptide)
chain: QVVGWPPVRNYRK
modifications: synthetic peptide, unlabelled; limits not given, taken from the IAA7 degron peptide of the TIR1-ASK1 crystal structures (13-mer, PDB 2P1Q)
IC50 (GST-TIR1-ASK1 complex): 18.4 nM

Next, values leading:

Kd (Biotinylated DB21 H101A): 215 nM
Kd [1]: 1900 nM
Kd (Biotinylated DB21 F48A [2]): 1500 nM
IC50 [3]: 23000 nM
IC50 (Biotinylated DB21 F48A [4]): 18000 nM
IC50 [5]: 4700 nM
IC50 (Biotinylated DB21 F48A [6]): 1700 nM
IC50 [7]: 17000 nM
IC50 [8]: 31 nM
B1: CA14 anchor binder nanobody, tag-free (VHH)
VHH: EVQLQASGGGFVQPGGSLRLSCAASGSTSRQYDMGWFRQAPGKEREFVSAISSNQDQPPYYADSVKGRFTISRDNSKNTVYLQMNSLRAEDTATYYCAFKQHHANGAYWGQGTQVTVSS

IC50 (His-DDB1–CRBN complex): 67 nM
B2: Label-free IKZF1 ZF2-3 (141-196) (domain or fragment)
chain: GERPFQCNQCGASFTQKGNLLRHIKLHSGEKPFKCHLCNYACRRRDALTGHLRTHS

Kd (IAA7 degron): 30.5 nM
B4: TIR1 (protein)
chain: T5 chain 1
